Reference: US20240043504A1 (published 2024)
Positions count from the first letter of the chain named.

B1: mAb10914 (antibody, V domains shown)
VH: EVQLVESGGGLVQPGGSLRLSCAASGLIVSRNYMIWVRQAPGKGLEWVSVIYSGGSTFYADSVKGRFTISRHNSKNTLYLQMNSLRAEDTAVYYCARDLGTGGMDVWGQGTTVTVSS
VL: DIQLTQSPSFLSASVGDRVTITCWASQGISSYLAWYQQKPGKAPKLLIYAASTLQSGVPSRFSGSGSGTEFTLTISSLQPEDFATYYCQQLNSYPLTFGGGTKVEIKR
B2: mAb10934 (antibody, V domains shown)
VH: not shown
VL: DIQMTQSPSSLSASVGDRVTITCQASQDIWNYINWYQQKPGKAPKLLIYDASNLKTGVPSRFSGSGSGTDFTFTISSLQPEDIATYYCQQHDDLPPTFGQGTKVEIKR
B3: mAb10935 (antibody, V domains shown)
VH: EVQLVESGGGLVQPGGSLRLSCAASGFTVSSNYMSWVRQAPGKGLEWVSLIYSGGSTYYADSVKGRFTISRHNSKNTLYLQMNSLRSEDTAVYYCARVPLGDYYYGMDVWGQGTTVTVSS
VL: B2 VL with W30N, N31K, I33L, K55E, H91S, D93N, P96L, Q100G
B4: mAb10913 (antibody, V domains shown)
VH: EVQLVESGGGLVQPGGSLRLSCAASGFTFRNYEMNWVRQAPGKGLEWVSYITSSGSTMYYADSVKGRFTISRDNAKNSLYLQMNSLRAEDTAVYYCARDGFYYYYAMDVWGQGTTVTVSS
VL: QSVLTQPPSVSAAPGQKVTISCSGSSSNIGNNYVSWYQQLPGTAPKLLIYDNNKRPSGIPDRFSGSKSGTSATLGITGLQTGDEADYYCGTWDSSLSVGRVFGTGTKVTVLG
B5: mAb10930 (antibody, V domains shown)
VH: EVQLVESGGGLVQPGRSLRLSCAASGFTFDDYAMYWVRQAPGKGLEWVSGISWNSGSIGYADSVKGRFTISRDNAKNSLYLQMNSLRAADTALYYCAKDKDWNSRGYYYYGMDVWGQGTTVTVSS
VL: not shown
B6: mAb10923 (antibody, V domains shown)
VH: QVQLVQSGAEVKKPGASVKVSCKASGYTFINYYIHWVRQAPGQGLEWMGWINPNSGGTNYAQKFQGRVTMTRDTSISTAYMELSRLRSDDTAVYYCAIITIFGVVTWFDPWGQGTLVTVSS
VL: not shown
B7: mAb10915 (antibody, V domains shown)
VH: EVQLVESGGGLVQPGGSLRLSCAASGFTVSSNYMNWVRQAPGKGLEWVSVIYSGGSTFYADSVKGRFTISRHNSKNTLYLQMNSLRPEDTAVYYCARDLGGYFDYWGQGTLVTVSS
VL: not shown
B8: mAb10932 (antibody, V domains shown)
VH: EVQLVESGGGLVQSGGSLRLSCAASGLTVSSNYMSWVRQAPGKGLEWVSVIYSGGSTFYSDSVKGRFTISRHNSKNTLYLQMNSLRAEDTAVYYCARARGDAFDIWGQGTMVTVSS
VL: not shown
B9: mAb10920 (antibody, V domains shown)
VH: QVQLVESGGGVVQPGRSLRLSCAASGFTFSYYGMHWVRQAPGKGLEWVAVIWYDGSNKFYADSVKGRFTISRDNSKNTLYLQMNSLRAEDTAVYYCAAARPGYYYGMDVWGQGTTVTVSS
VL: DIQMTQSPSSLSASVGDRVTITCRASQGISNYLAWFQQKPGKAPNSLIYAASSLQRGVPSKFSGSGSGTDFTLTISSLQPEDFATYYCQQYNSYPRTFGQGTKVEIKR
B10: mAb10921 (antibody, V domains shown)
VH: EVQLVESGGGLVQPGGSLRLSCAASGITVSSNYMSWVRQAPGKGLEWVSVIYSGGSTFYADSVKGRFTISRHNSKNTLYLQMNSLRAEDTAVYYCARERNFDAFDIWGQGTMVTVSS
VL: DIQMTQSPSSVSASVGDRVTITCRASQGISSWLAWYQQKPGKAPKLLIYAASSLQSGVPSRFSGSGSGTDFTLTISSLQPEDFATYYCQQANSFPLFTFGPGTKVDIKR

Target: SARS-COV-2 RBD extracellular domain expressed with a C-terminal mouse IgG2a (SARS-CoV-2)
Assay: SPR Biacore, mAb captured via anti-hFc, 25 C

Binder	Kd	t½	koff	kon
B1	0.54 nM	1.38 h	–	–
B2	0.0139 nM	–	–	–
B3	0.0794 nM	1.8 h	0.000107 s⁻¹	1.35e+06 M⁻¹ s⁻¹
B4	0.0553 nM	0.695 h	0.000277 s⁻¹	5e+06 M⁻¹ s⁻¹
B5	0.181 nM	1.12 h	0.000171 s⁻¹	943000 M⁻¹ s⁻¹
B6	0.0367 nM	1.43 h	0.000135 s⁻¹	3.69e+06 M⁻¹ s⁻¹
B7	0.0323 nM	21.1 h	–	–
B8	0.0967 nM	6.75 h	2.85e-05 s⁻¹	295000 M⁻¹ s⁻¹
B9	0.0502 nM	0.755 h	–	–
B10	0.125 nM	5.76 h	3.34e-05 s⁻¹	266000 M⁻¹ s⁻¹
